Assay results reported in PMC8281026, “Peptide Based Inhibitors of Protein Binding to the Mitogen-Activated Protein Kinase Docking Groove” (Frontiers in Molecular Biosciences, 2021).
Primed or numbered codes have the meaning given here. The star is where a group is joined. Dabcyl′ = 4-((4-(dimethylamino)phenyl)azo)benzoyl, CN(C)c1ccc(/N=N/c2ccc(C(=O)*)cc2)cc1

B1: H-RRRPPWLRLDIRR-NH2 (peptide 8) (peptide)
peptide: H-RRRPPWLRLDIRR-NH2
notes: peptide 6 with one more Arg at the N-terminus; source: synthetic peptide (Fmoc/tBu solid phase on Rink-amide MBHA resin, RP-HPLC purified)
B2: Dabcyl-RRRPPWLRLDIRRK-NH2 (peptide 10) (peptide)
peptide: {Dabcyl′}-RRRPPWLRLDIRRK-NH2
SMILES: CC[C@H](C)[C@H](NC(=O)[C@H](CC(=O)O)NC(=O)[C@H](CC(C)C)NC(=O)[C@H](CCCNC(=N)N)NC(=O)[C@H](CC(C)C)NC(=O)[C@H](Cc1c[nH]c2ccccc12)NC(=O)[C@@H]1CCCN1C(=O)[C@@H]1CCCN1C(=O)[C@H](CCCNC(=N)N)NC(=O)[C@H](CCCNC(=N)N)NC(=O)[C@H](CCCNC(=N)N)NC(=O)c1ccc(/N=N/c2ccc(N(C)C)cc2)cc1)C(=O)N[C@@H](CCCNC(=N)N)C(=O)N[C@@H](CCCNC(=N)N)C(=O)N[C@@H](CCCCN)C(N)=O
notes: peptide 8 with a Lys at the C-terminus and a Dabcyl group on the N-terminus; also called Dabcyl-containing peptide (unlabelled); source: synthetic peptide (Fmoc/tBu solid phase on Rink-amide MBHA resin, RP-HPLC purified)
B3: H-SLQRKKPPWLKLDIPSC-NH2 (peptide 1, RHDF1 linear binding motif) (peptide)
peptide: H-SLQRKKPPWLKLDIPSC-NH2
notes: C-terminal cysteine that follows the 16 residues of the motif in the printed peptide; not part of the motif as printed in the text; The added Cys probably serves for conjugation (cysteine containing peptides were joined to chloroacetylated peptides); also called original peptide; source: synthetic peptide (Fmoc/tBu solid phase on Rink-amide MBHA resin, RP-HPLC purified)
B4: H-KKPPWLKLDI-NH2 (peptide 4) (peptide)
peptide: H-KKPPWLKLDI-NH2
notes: RHDF1 docking motif without the flanking regions SLQR (N-terminus) and PS (C-terminus); also called short peptide; truncated construct; source: synthetic peptide (Fmoc/tBu solid phase on Rink-amide MBHA resin, RP-HPLC purified)
B5: H-RRPPWLRLDI-NH2 (peptide 5) (peptide)
peptide: H-RRPPWLRLDI-NH2
notes: source: synthetic peptide (Fmoc/tBu solid phase on Rink-amide MBHA resin, RP-HPLC purified)
B6: H-RRPPWLRLDIRR-NH2 (peptide 6) (peptide)
peptide: H-RRPPWLRLDIRR-NH2
notes: peptide 5 extended at the C-terminus by two Arg; source: synthetic peptide (Fmoc/tBu solid phase on Rink-amide MBHA resin, RP-HPLC purified)

Molecular target: T1, ERK2 (UniProt P28482 1-360)
T1 construct: The in vitro activity assay used active, phosphorylated pp-ERK2 (1 nM); also called extracellular signal-regulated kinase 2; MAPK; source: recombinantly expressed in Escherichia coli, purified according to Garai et al
T1 sequence (P28482 whole entry): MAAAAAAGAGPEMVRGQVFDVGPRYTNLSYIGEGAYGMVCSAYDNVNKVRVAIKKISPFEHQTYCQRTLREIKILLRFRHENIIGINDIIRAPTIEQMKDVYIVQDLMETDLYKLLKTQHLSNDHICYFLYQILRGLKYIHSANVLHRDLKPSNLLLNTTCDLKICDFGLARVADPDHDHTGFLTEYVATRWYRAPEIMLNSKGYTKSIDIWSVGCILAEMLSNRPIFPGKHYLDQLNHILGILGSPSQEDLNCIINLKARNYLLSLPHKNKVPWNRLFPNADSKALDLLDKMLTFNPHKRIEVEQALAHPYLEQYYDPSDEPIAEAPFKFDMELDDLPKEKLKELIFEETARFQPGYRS
Assay: fluorescence polarisation; competitive: complex of the MAPK with 50 nM Cf-RHDF at 60-80% complex formation titrated with increasing unlabeled peptide; 20 mM Tris pH 8.0, 100 mM NaCl, 0.05% Brij35, 2 mM TCEP; 384-well black plates; triplicates; constants are called Kd in Table 1 and Ki in the methods
Details: both partners purified

Binder | Kd [µM]
B1 | 1.3
B2 | 4.6
B3 | 1.8
B4 | 15
B5 | 19.5
B6 | 5.2

Molecular target: T2, p38α (UniProt Q16539 1-360)
T2 construct: The in vitro activity assay used active, phosphorylated pp-p38α (1 nM); source: recombinantly expressed in Escherichia coli, purified according to Garai et al
T2 sequence (Q16539 whole entry): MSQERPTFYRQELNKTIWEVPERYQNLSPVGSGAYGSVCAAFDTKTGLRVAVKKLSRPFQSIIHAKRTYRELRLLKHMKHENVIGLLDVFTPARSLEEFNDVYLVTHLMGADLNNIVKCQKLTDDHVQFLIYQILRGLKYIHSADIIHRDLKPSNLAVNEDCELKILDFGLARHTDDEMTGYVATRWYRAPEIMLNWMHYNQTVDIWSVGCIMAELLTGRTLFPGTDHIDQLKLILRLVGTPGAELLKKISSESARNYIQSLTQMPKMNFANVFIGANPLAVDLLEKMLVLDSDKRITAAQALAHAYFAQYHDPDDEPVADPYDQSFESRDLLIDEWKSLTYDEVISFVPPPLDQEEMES
Assay: as above
Details: both partners purified

Binder | Kd [µM]
B1 | 1.4
B2 | 1
B3 | 1.1
B5 | 10
